What was measured:
[1] = biological target: H2O2-oxidized SOD1(C6A) (Cys111 sulfonylated) (human); assay: not stated; Zn2+-bound SOD1(WT, C6A) before and after oxidation with H2O2; Figure S7, method not given
apo-SOD1(C6A) (human) [2] = assay: as above
apo-SOD1(C6A) (human) [3] = assay: native MS; mass spectra of apo-SOD1(C6A) under native conditions, before and after treatment with H2O2; spectra normalized to the 11+ charge state of the dimer
apo-SOD1(C6A) (human) [4] = assay: SEC-MALS; gel filtration of 20 μM apo protein in MN buffer (100 mM MOPS, 50 mM NaCl, pH 7.0), before or after treatment with 10 mM H2O2, monitored at 280 nm, masses by MALS

Row | Substance | stoichiometry N [1] | stoichiometry N (apo-SOD1(C6A) (human) [2]) | stoichiometry N (apo-SOD1(C6A) (human) [3]) | stoichiometry N (apo-SOD1(C6A) (human) [4])
1 | H2O2-oxidized SOD1(C6A) (Cys111 sulfonylated) (enzyme) | 2 |  |  | 
2 | apo-SOD1(C6A) (enzyme) |  | 2 | 2 | 2
